From patent publication US20140289906A1, “Compositions Having Dicamba Decarboxylase Activity and Methods of Use” (priority 2013, published 2014)

B1: 8 (protein, listed as Metarhizium anisopliae)
chain: MARGKINFEEAFELPTLADSSREQAALYIAPKDLDRYIYHIKHPLGERLQLANSHGIGYTIYSLTVPGIQGIPDQSKAEQHATTVNDWIANEIKDHRDRLGAFAALSMHDAAQAAAELERCVRQHGFHGALLNNYQHAGPDGETYLFYDQPAYDVFWQKCVELDVPVYLHPAAPAGNYYKQMYAQRKYLVGPPLSFANDVSLHLLGLVTNGVFDRFPKLKVVVGHLGEHIPFDFWRISHWLEDVERPLAAGRGDVMSKKDLLYYFKNNIWVTTSGHFSTPTVRYVADYLGPERIMFSVDTPYETIENGVGWFDGEEDALTRALGGEDGYKKVARENAKKLFKLTKYHDCDA
B2: 97 (protein, listed as Sphingobium sp.)
chain: MAMMIIDCHGHYTVLPKAHDEWREQQKAAFKAGQPAPPYPEISDDEIRETIEANQLRLIKERGADMTIFSPRASAMAPHVGDQSVAVPWAQACNNLIARVVDLFPETFAGVCMLPQSPEADMTSSIAELERCVNELGFIGCNLNPDPGGGHFKHPPLTDRFWYPFYEKMVELDVPAMIHVSGSCNPAMHATGAYYLAADTIAFMQLLQGNLFADFPTLRFIIPHGGGAVPYHWGRFRGLADMLKQPSLDTLLMNNVFFDTCVYHQPGINLLADVIDNKNILFGSEMVGAVRGIDPTTGHYFDDTKRYIDALDISDQERHAIFEGNTRRVFPRLDAKLKARGL
B3: 107 (protein, listed as Rhodopseudomonas palustris)
chain: MAIIDIHGHYTTAPKALEDWRNRQIAGIKDPSVMPKVSELKISDDELQASIIENQLKKMQERGSDLTVFSPRASFMAHHIGDFNVSSTWAAICNELCYRVSQLFPDNFIGAAMLPQSPGVDPKTCIPELEKCVKEYGFVAINLNPDPSGGHWTSPPLTDRIWYPIYEKMVELEIPAMIHVSTSCNTCFHTTGAHYLNADTTAFMQCVAGDLFKDFPELKFVIPHGGGAVPYHWGRFRGLAQEMKKPLLEDHVLNNIFFDTCVYHQPGIDLLNTVIPVDNVLFASEMIGAVRGIDPRTGFYYDDTKRYIEASTILTPEEKQQIYEGNARRVYPRLDAALKAKGK
B4: 104 (protein)
chain: MANILQEPIDFLKKEELKNIDLSQMSKKERYKIWKRIPKCELHCHLDLCFSADFFVSCIRKYNLQPNLSDEEVLDYYLFAKGGKSLGEFVEKAIKVADIFHDYEVIEDLAKHAVFNKYKEGVVLMEFRYSPTFVAFKYNLDIELIHQAIVKGIKEVVELLDHKIHVALMCIGDTGHEAANIKASADFCLKHKADFVGFDHGGHEVDLKEYKEIFDYVRESGVPLSVHAGEDVTLPNLNTLYSAIQVLKVERIGHGIRVAESQELIDMVKEKNILLEVCPISNVLLKNAKSMDTHPIRQLYDAGVKVSVNSDDPGMFLTNINDDYEELYTHLNFTLEDFMKMNEWALEKSFMDSNIKDKIKNLYF
modifications: Plasmodium Vivax
B5: 94 (protein, listed as Bacillus thuringiensis)
chain: MANRGDSNMKSLVGVIMGSTSDWETMKYACDILDELNIPYEKKVVSAHRTPDYMFEYAETARERGLKVIIAGAGGAAHLPGMVAAKTNLPVIGVPVQSKALNGLDSLLSIVQMPGGVPVATVAIGKAGSTNAGLLAAQILGSFHDDIHDALELRREAIEKDVREGSELV
B6: 93 (protein, listed as Mucilaginibacter paludis)
chain: MAKYGKHITINKNMRIVTLEEHISFPEMADQIPKAALGSFGRSEAMQRIAPKLADITGERLKSMDANGISMQVLSVDSSGVNLLSPQQGPAFATQYNDLIANRIAGFEKRFTAFAHLPMTAPFAAADELERAVKEHHFCGAMIRGLTGDQFLDHPQFAPIFERAQKLDVPIYLHPGLPPKGVADIYYSGLPNYSGMAEALACYGWGWHSETALHVLRLLFSGIFDQYPKLKLVIGHMGEMLPMMMARSEKAFKPGNGGANVRTLTDTFRSQVYLTTSGFFTQPPLKIALDTFGIDHVMFSVDYPFSTNEMGIEFLNEIDLPDEEVARIAHGNADKLLNLKA
B7: 9 (protein, listed as Octadecabacter antarcticus)
chain: MATPKITFEEHFMAPGFEKHSEAFLKLIPRDQAEILTRRLGDFDGERIETMDRGGITRSIISLTGPGTQGEAVEKAVSAAQGANDFLAEKISKKPDRLGGLATLPMHDPDAAARELNRAVNDLGLQGCLVNTHTHGAYYEGTDYDPFWAEVEKLGVPFYLHPSNAYVTPHVLGGMPVLQGATWGWGVETGSHALRILFGGVFDRFPDVKLVLGHMGEALPFLRWRYDSRFGAYPMGVSLDRAPSAYFGSNILITTSGVCSHPSLIGAIGEMGADAVMFSVDYPYEDTDLAVEFIETAPLEDATRVKICHDNAARLFGMPTLAAKEGA
B8: 103 (protein)
chain: MAMEIPTEEIKFLKKEDVQNIDLNGMSKKERYEIWRRIPKVELHCHLDLTFSAEFFLKWARKYNLQPNMSDDEILDHYLFTKEGKSLAEFIRKAISVSDLYRDYDFIEDLAKWAVIEKYKEGVVLMEFRYSPTFVSSSYGLDVELIHKAFIKGIKNATELLNNKIHVALICISDTGHAAASIKHSGDFAIKHKHDFVGFDHGGREIDLKDHKDVYHSVRDHGLHLTVHAGEDATLPNLNTLYTAINILNVERIGHGIRVSESDELIELVKKKDILLEVCPISNLLLNNVKSMDTHPIRKLYDAGVKVSVNSDDPGMFLSNINDNYEKLYIHLNFTLEEFMIMNNWAFEKSFVSDDVKSELKALYF
modifications: Plasmodium yoelii yoelii
B9: 102 (protein, listed as Lactobacillus plantarum)
chain: MATKTFKTLDDFLGTHFIYTYDNGWEYEWYAKNDHTVDYRIHGGMVAGRWVTDQKADIVMLTEGIYKISWTEPTGTDVALDFMPNEKKLHGTIFFPKWVEEHPEITVTYQNEHIDLMEQSREKYATYPKLVVPEFANITYMGDAGQNNEDVISEAPYKEMPNDIRNGKYFDQNYHRLNK
B10: 96 (protein)
chain: MAPLIVDVHTHVYPPAYMQMLRSRKTVPYVHDPSNNRDPRLIILSSDDDASIPLDQRGRPVDSSYWDINVKLSFMRQHGINCSVISLANPWLDFVEPAEAQMWAERINDDLEKTCATVNKAADPGNTLTLDQKETLFAFGALPLSAPSSESVVAEIKRLKTLEHLRGVIMGTSGLGKGLDDARLDPVWEALQETDMLMFLHPHYGLPEEAYGGPETTGRYGHVLPLALGFPLETTIAVTRMLLSGVFDRFPRLKILLAHSGGTLPFLAGRIESCILHERKFISGGGDVQGPQRSVWDVLKTNIYLDAVVYGKPGLEAAMTASGSDRLLFGTDHPFFPPLDSKDNSWPSVTTNYQAIHATFDTNSKTVADVLGGNAARILNLK
modifications: Aspergillus nidulans
B11: 99 (protein, listed as Ralstonia solanacearum)
chain: MAIIDCHGHFTTAPTALEDWRKRQIANLATPALGPSPDDLKISDDALTEAIRANQLRLMQARGSDLTIFSPRASFMAHHIGDFHTSATWAAICNALCHRVSQLFPDHFVGAAMLPQSPGVDIRTCIPELARCIVDYGFVGVNLNPDPSGGHWTSPPLSDPYWFPLYEKLVEYDVPAMIHVSTSCNACFHTTGAHYLNADTTAFMQVLTSDLFRRFPTLKFVIPHGGGAVPYHWGRFRGLAQELKTPPLQEHLLHNVFFDTCVYHQPGIDLLTRVIPVDNILFASEMIGAVRGIDPETGHPFDDTRRYIDQAHTLSAEDRHKIYEGNARRVYPRLDARLKARGR
B12: 105 (protein)
chain: MAIDFHVHLDLYPDPVAVARACEERQLTVLSVTTTPAAWRGTLALAAGRPHVWTALGFHPEVVSERAADLPWFDRYLPETRFVGEVGLDGSPSLRGTWTQQFAVFQHILRRCEDHGGRILSIHSRRAESEVLNCLEANPRSGTPILHWYSGSVTELRRAISLGCWFSVGPTMVRTQKGAALIRSMPRDRVLTETDGPFLELDGQAALPWDVKSVVEGLSKIWQIPASEVERIVKENVSRLLGTVR
modifications: Deinococcus radiodurans
B13: 98 (protein)
chain: MAIIDCHGHYTTAPAAHDAFRKAQIAHHDDPQQPAPQYPHISDDALRESIEQHQLRLLRERGADMTIFSPRASTMAHHIGNEAVSQVWTQRCNDLIARVVQLYPHTFIGVCQLPQSPGVPISHSIAELERCVNELGFVGCNLNPDPSGGHWNGVPLTDRAWYPFFEKMVELDVPAMVHVSGSCNANFHATGAHYLNADTTAFMQFLEGDLFRDFPSLRFIIPHGGGAVPYHWGRFRGLADMLGKPPLATHVMRNVFFDTCVYHQPGIDLLFEVIDIDNILFGSEMVGAVRGIDPQTGHYFDDTKRYIDALTISDADKRKVFEGNARRVYPRLDAQLRARGL
modifications: Xanthomonas campestris pv.
B14: 106 (protein, listed as Pyrococcus horikoshii)
chain: MAGMKFIKNLHVSKLVIDSMKALINGTIYTSFNPLKKVSGLVISHGKVIYAGDSEVAKKIVELSGGEIVDLKGKYVMPAFFDSHLHLDELGMSLEMVDLRGAKSIEELIQRLKRGKGRIIFGFGWDQDELGEWPTRKELNAIDKPVFIYRKCFHVAVANDKMLELLNLTPSKDFDEDTGIIKEKSLEEARKVINERVLTVEDYVYYIKRAQEHLLDLGVKSVSFMSVNEKALRALFYLEREGKLSINVFAYVTPEVLDKLESIGLGRFQGNRLTIAGVKLFTDGSLGARTALLSKPYSDDPSTSGQLVMEREELIRITEKARSLGLDVAIHAIGDKALDVALDVFETTGFPGRIEHASLVRDDQLERVKNLKVRLSVQPHFIISDWWIVERVGEERVKWVYRFKDLMKVAELGFSTDSPIEPADPWLTVDAAVNRGKGKVKLYELTKDQALDIKDALHSYTYGSARVSLASDIGKLEPGFKAEYIILDRDPLVVK
B15: 101 (protein, listed as Aquifex aeolicus)
chain: MAQKIALCITGASGVIYGIKLLQVLEELDFSVDLVISRNAKVVLKEEHSLTFEEVLKGLKNVRIHEENDFTSPLASGSRLVHYRGVYVVPCSTNTLSCIANGINKNLIHRVGEVALKERVPLVLLVREAPYNEIHLENMLKITRMGGVVVPASPAFYHKPQSIDDMINFVVGKLLDVLRIEHNLYKRWRG

Experiment: 14C assay: 14CO2 capture from [14C]-carboxyl-labeled dicamba with IPTG-induced recombinant E. coli cells
Conditions: for Dicamba Decarboxylase Activity: IPTG-induced recombinant E. coli cells, 14CO2 from [14C]-carboxyl-labeled dicamba; for Enzymatic Detection level: dicamba decarboxylation activity

Molecule | Dicamba Decarboxylase Activity | Enzymatic Detection level
B1 | Low | Low
B2 | No | No
B3 | No | No
B4 | No | No
B5 | No | No
B6 | Low | Low
B7 | No | No
B8 | No | No
B9 | No | No
B10 | No | No
B11 | No | No
B12 | No | No
B13 | No | No
B14 | No | No
B15 | No | No
